B1: SC04-353 (scFv)
scFv: EVQLVQSGGGVVQPGRSLRLSCAASGFTFSNYAMHWVRQAPGKGLEWVAVISYDGGNKYYADSVKGRFTMSRDNSKNTLYLQMNSLRAEDTAVYYCARDFWSGYSMVDSYYYYMDVWGKGTTVTVSSGTGGSGGTGSGTGGSTETTLTQSPGTLSLSPGERATLSCRASQSVSNTFLAWYQQKPGQAPRLLIYGASSRATGIPDRFSGSGSGTDFTLTISRLEPEDFAAYYCQQYGSSLTFGPGTKVDIKR
B2: SC04-374 (scFv)
scFv: QVTLKESGPTLVKPTQTLTLTCTFSGFSLSTSGVGVGWIRQPPGKALEWLAVIYWNDDKLYRPSLKSRLTITKDTSKNQVVLTMTKMDPVDTATYYCAHRHRYYDISGYYRLFSDAFDIWGQGTMVTVSSGTGGSGGTGSGTGGSTQSVVTQPPSVSGAPGQRVTISCTGSSSNIGAGYDVHWYQQLPGTAPKLLIYGNSNRPSGVPDRFSGSKSGTSASLAITGLQAEDEADYYCQSYDSSLSGSVFGGGTKLTVLG
B3: SC04-361 (scFv)
scFv: EVQLVQSGAEVKKPGESLKISCKASGFSFSTYWIGWVRQMPGKGLEWMGIIYPADSDTRYSPSFQGQVTISADKSISTAYLQWSSLKASDTAMYYCARLRGPYYDFWNGYRETHDAFNVWGQGTMVTVSSGTGGSGGTGSGTGGSTDVVMTQSPDSLAVSLGERATINCKSSQNILDNSDNKNFLAWYQQKPGQPPKLLIYWASARESGVPDRFSGSGSGTDFTLTISSLQAEDVALYYCQQYYNTPITFGQGTRLEIKR

Molecular target: whole inactivated rabies virus
Assay: phage ELISA, coated whole inactivated rabies virus

Binder | OD 492 nm
B1 | 0.057 OD 492 nm
B2 | 0.056 OD 492 nm
B3 | 0.059 OD 492 nm
